Measured values reported in paper PMC9891525.
Like-named read-outs stand apart in the source and are kept apart here.

What was measured:
[1] = target: biotinylated recombinant SARS-CoV-2 wild type spike RBD (UniProt P0DTC2); details: n = 2 replicates; parent: est. 100; read off a plot
[2] = target: biotinylated recombinant SARS-CoV-2 wild type spike RBD (UniProt P0DTC2); details: n = four independent experiments; read off a plot
[3] = target: biotinylated recombinant SARS-CoV-2 wild type spike RBD (UniProt P0DTC2); details: n = 2 replicates; parent: est. 100; read off a plot; remark: listed apart in the source
[4] = target: biotinylated recombinant SARS-CoV-2 wild type spike RBD (UniProt P0DTC2); details: n = 2 replicates; parent: est. 110; read off a plot

Substance	percent of parent (Relative fluorescence) [1]	percent of parent (Relative fluorescence) [4]	further results
REGN10987 scFv displayed on the surface of HEK 293T cells D54F	97		
REGN10987 scFv displayed on the surface of HEK 293T cells D54I	110		enrichment [2]: 3.2 log2(FC)
REGN10987 scFv displayed on the surface of HEK 293T cells D54L	130		
REGN10987 scFv displayed on the surface of HEK 293T cells D54T	120		
REGN10987 scFv displayed on the surface of HEK 293T cells D54Y	82		
REGN10987 scFv displayed on the surface of HEK 293T cells L106N; N57F			percent of parent (Relative fluorescence) [3]: 120
REGN10987 scFv displayed on the surface of HEK 293T cells L106N; N57T			percent of parent (Relative fluorescence) [3]: 130
REGN10987 scFv displayed on the surface of HEK 293T cells N57H	120		
REGN10987 scFv displayed on the surface of HEK 293T cells S97Y	150		
REGN10987 scFv displayed on the surface of HEK 293T cells S97Y; D54F		100	
REGN10987 scFv displayed on the surface of HEK 293T cells S97Y; D54F; N57H		110	
REGN10987 scFv displayed on the surface of HEK 293T cells S97Y; D54I		220	
REGN10987 scFv displayed on the surface of HEK 293T cells S97Y; D54L		220	
REGN10987 scFv displayed on the surface of HEK 293T cells S97Y; D54T		220	
REGN10987 scFv displayed on the surface of HEK 293T cells S97Y; D54T; N57H		240	
REGN10987 scFv displayed on the surface of HEK 293T cells S97Y; D54Y		130	
REGN10987 scFv displayed on the surface of HEK 293T cells S97Y; D54Y; N57H		160	
REGN10987 scFv displayed on the surface of HEK 293T cells S97Y; N57H		200	
